Measured values taken from the DeepSol protein solubility set.

Assay: soluble on expression in E. coli; label from the status in PepcDB or PDB records

Sequence | soluble on expression in E. coli
MAIPYVVRKKADLTSGERKELWYGVPSKIQDRGGVQNKELAQVVELRGGFHRGQVEGILVEVADAIRYLLSMGQSVTIDGLGTFQTALTSPGFERPEQVTPGQVSVSRVYFVANSALRDRMKKTKCMRIPFKYYMSESMLTKEMKKADQEQEQTEE | not soluble
MAIQHPDIQPAVNHSVQVAIAGAGPVGLMMANYLGQMGIDVLVVEKLDKLIDYPRAIGIDDEALRTMQSVGLVDNVLPHTTPWHAMRFLTPKGRCFADIQPMTDEFGWPRRNAFIQPQVDAVMLEGVSRFPNVRCLFSRELEAFSQQDDEVTLHLKTAEGLREIVKAQWLVACDGGASFVRRTLNVPFEGKTAPNQWIVVDIANDPLSTPHIYLCCDPVRPYVSAALPHAVRRFEFMVMPGETEEQLREPQNMRKLLSKVLPNPDNVELIRQRVYTHNARLAQRFRIDRVLLAGDAAHIMPVWQGQGYNSGMRDAFNLAWKLALVIQGKARDALLDTYQQERRDHAKAMIDLSVTAGNVLAPPKRWQGTLRDGVSWLLNYLPPVKRYFLEMRFKPMPQYYGGALVREGEAKHSPVGKMFIQPKVTLENGDVTLLDNAIGANFAVIGWGCNPLWGMSDEQIQQWRALSTRFIQVVPEVQIHTAQDNHDGVLRVGDTQGRLRSWFAQHNASLVVMRPDRFVAATAIPQTLGKTLNKLASVMTLTRPDADVSVEKVA | not soluble
MAIRIAINGFGRIGRSVLRALYESGRRAEISVVAINELASAEGMAHLLKYDSSHGRFAWDVRQECDSLYVGDDIIRLIHQSEIEQLPWSELGIDVVLDCSGVYGSREDGEAHVASGAKKVLFAHPGGHDLDATVVYGVNHQDLRAEHRIVSNASCTTNCIIPIIQLLDIAYGIESGTVTTIHSSMNDQPVIDAYHQDLRRTRAASQSIIPVDTKLAAGITRIFPKFCDRFEAISVRVPTINVTAIDLSVSVTHPVGVAEVNQLLQKAARGAFRGIVDYTELPLVSMDFNHDPHSAIVDGTQTRVSGQHLIKTLVWCDNEWGFANRMLDTTLAMAKSGF | not soluble
MAIRRLRTIFVSLLLGLAASATQAADRSDRNVTAKLEGRFEWDFALFDNDTRGTPNRSNNEIRRFWLDVTGKVFAFDYTIEGNFTNLQDKFKGKSIEMGDVYLRHDFGNTGTLTLGQFKQHFSLDDRTSPDYGQFLERSGGANTLAPEYHKGVSWKATHQNTTWWVSAYSLDSISLSNVNGRGLGGRGTWSPDTPEGDVLHLGLSLAHQRYDHPGSDGMTALSIRPLPAGHLSDNSGITLAHFANGRDTKVNRWALEYAQVRGPLSWQSEYIGGAFNDGMQRATVQSAYGFVSWFVTGESRTYDRKTGRFTRIKTLHNPRGALELALRYDRMWGNQHHNNQPNFLNASTASCTLGVNWYIKPNLRLMLNLIDSRNRDRLAGTVLDHTRALTGRLHYDF | not soluble
MAIYTVKALITDPIDEILIKTLREKGIQVDYMPEISKEELLNIIGNYDIIVVRSRTKVTKDVIEKGKKLKIIARAGIGLDNIDTEEAEKRNIKVVYAPGASTDSAVELTIGLMIAAARKMYTSMALAKSGIFKKIEGLELAGKTIGIVGFGRIGTKVGIIANAMGMKVLAYDILDIREKAEKINAKAVSLEELLKNSDVISLHVTVSKDAKPIIDYPQFELMKDNVIIVNTSRAVAVNGKALLDYIKKGKVYAYATDVFWNEPPKEEWELELLKHERVIVTTHIGAQTKEAQKRVAEMTTQNLLNAMKELGMI | soluble
MAKALEQPFDVANIPGPKMATLLEKGKPVANMIKKAKRPLLIVGPDMTDEMFERVKKFVEKDITVVATGSAITRFIDAGLGEKVNYAVLHELTQFLLDPDWKGFDGQGNYDLVLMLGSIYYHGSQMLAAIKNFAPHIRALAIDRYYHPNADMSFGNLWKKEEDYLKLLDEILAEL | soluble
MAKATYACVECGYRTPKPLGRCPSCGSWESFQEVAPAPASRRAKPSPLPLLALSQVDEAEERRFSSGLSEVDRVLGGGFVTGEVVLLGGEPGVGKSTLLLEMAKRMPQRVYYVAGEESPAQIKLRAQRLGVKDLLLVRETRLEPLLALLEEDPPEVLFVDSVQTLEAGGSPGSLVAVREATSALVRFAKERGVAVVLVGHVTKEGVVAGPKSVEHAVDATLYLETAGPYRVLRSAKNRFGPVGEIGVFRMEEAGLLEVENPSEAFLKERPLGVPGSAVALALAGERALALEVQALAAKTPFPAPRRVVQGLDGRRVDVVLAVLERRLGLPLANLDVYVNLAGGLKVQDPGLDLAVALAVYSAVVGRPLPVDLALVGEVGLAGEVRRVAVLERRLREGERAGFGRFLHPGNLKRLQEAVEAYLA | soluble
MAKEKEKLFSEFPPVSREAWIDKITADLKGVPFEKKLVWRTNEGFNVNPFYRREDIEDLKTTTSLPDEYPYVRSTRMHNEWLVRQDIVVGDNVAEANEKALDLLNKGVDSLGFYLKKVHINVDTLAALLKDIELTAVELNFNCCITRAADLLSAFSAYVKKVGADPNKCHGSVSYDPFKKQLVRGVSNPDWVKMTLPVMDAARELPAFRVLNVNAVNLSDAGAFITQELGYALAWGAELLDKLTDAGYKPEEIASRIKFNFGIGSNYFMEIAKFRAARWLWAQIVGSYGDQYKNETAKIHQHATTSMWNKTVFDAHVNLLRTQTETMSAAIAGVDSITVLPFDVTYQQSDDFSERIARNQQLLLKEECHFDKVIDPSAGSYYIETLTNSIGEEAWKLFLSVEDAGGFTQAAETASIQKAVNASNIKRHQSVATRREIFLGTNQFPNFTEVAGDKITLAQGEHDCNCVKSIEPLNFSRGASEFEALRLATEKSGKTPVVFMLTIGNLAMRLARSQFSSNFFGCAGYKLIDNLGFKSVEEGVDAALAAKADIVVLCSSDDEYAEYAPAAFDYLAGRAEFVVAGAPACMADLEAKGIRNYVHVKSNVLETLRAFNDKFGIR | not soluble
MAKFTVGQDPVKGLTELKAYMEEQISKIKKATSEQEIDQLLVEVLNEYDDKMGSLSKIYKGGNEQVEQLKIDVRKLYEPLRDQFSYNHPQTLVGEFQTKLEEQHKRAEEEKRKLEKQREEQLKLEKQLEEEKQKLAKQSEVEEKPKLENQQEENITQALQKVDGIIQELTLKIDRVDQHQYKKAHDTANTLLQSLIAARDEYERDLRANEFSQELAGRKFKLACQDAVKIAKPVLEKDLGWGDYLKNLLKCLGNAVITVFTFGYQQGFFAYARPDSAKAVEKAEEDLGLRQAASSPK | not soluble
MAKGVAVLSSSEGVAGTILFTQEGDGPTTVTGNISGLKPGLHGFHVHALGDTTNGCMSTGPHFNPAGKEHGSPEDETRHAGDLGNITVGDDGTACFTIVDKQIPLTGPHSIIGRAVVVHADPDDLGKGGHELSKSTGNAGGRIACGIIGLQG | soluble
MAKIAAIFQLLDKNVTVSSHRLELLSPARDAAIAREAILHGADAVYIGGPGFGARHNASNSLKDIAELVPFAHRYGAKIFVTLNTILHDDELEPAQRLITDLYQTGVDALIVQDMGILELDIPPIELHASTQCDIRTVEKAKFLSDVGFTQIVLARELNLDQIRAIHQATDATIEFFIHGALCVAYSGQCYISHAQTGRSANRGDCSQACRLPYTLKDDQGRVVSYEKHLLSMKDNDQTANLGALIDAGVRSFKIEGRYKDMSYVKNITAHYRQMLDAIIEERGDLARASSGRTEHFFVPSTEKTFHRGSTDYFVNARKGDIGAFDSPKFIGLPVGEVVKVAKDHLDVAVTEPLANGDGLNVLIKREVVGFRANTVEKTGENQYRVWPNEMPADLHKIRPHHPLNRNLDHNWQQALTKTSSERRVAVDIELGGWQEQLILTLTSEEGVSITHTLDGQFDEANNAEKAMNNLKDGLAKLGQTLYYARDVQINLPGALFVPNSLLNQFRREAADMLDAARLASYQRGSRKPVADPAPVYPQTHLSFLANVYNQKAREFYHRYGVQLIDAAYEAHEEKGEVPVMITKHCLRFAFNLCPKQAKGNIKSWKATPMQLVNGDEVLTLKFDCRPCEMHVIGKIKNHILKMPLPGSVVASVSPDELLKTLPKRKG | not soluble
MAKIGLFFGSDTGTTRKIAKQIKDMFDDEVMAKPLNVNRADVADFMAYDFLILGTPTLGDGQLPGLSANAASESWEEFLPRIADQDFSGKTIALFGLGDQVTYPLEFVNALFFLHEFFSDRGANVVGRWPAKGYGFEDSLAVVEGEFLGLALDQDNQAALTPERLKGWLSLIAADFGLVLPA | soluble
MAKITEENYVSLEDLMQLLNSSESTIRRDLGELEQEGRLHRVHGGAELFHSLQEELSNQEKSVKNSHIKKAIAQRASQLIYDNDVIFIDAGTTTEFLLPFLQAKNLTVVTNSIHHAARLVELSIETIIVGGYVKQTTDASIGNVALEQIRQMNFDKAFLGMNGVDDSYLTTPDMEEAVIKKAVLSNAKLAYILVDGTKIGQVSFVKVAPINDVTIITLGGSASILKQIKEKAKVIEL | soluble
